Test: soluble on expression in E. coli; label from the status in PepcDB or PDB records

**Q.** For “MPKFDVSKSDLERLIGRSFSIEEWEDLVLYAKCELDDVWEENGKVYFKLDSKDTNRPDLWSAEGVARQIKWALGIEKGLPKYEVKKSNVTVYVDEKLKDIRPYGVYAIVEGLRLDEDSLSQMIQLQEKIALTFGRRRREVAIGIFDFDKIKPPIYYKAAEKTEKFAPLGYKEEMTLEEILEKHEKGREYGHLIKDKQFYPLLIDSEGNVLSMPPIINSEFTGRVTTDTKNVFIDVTGWKLEKVMLALNVMVTALAERGGKIRSVRVVYKDFEIETPDLTPKEFEVELDYIRKLSGLELNDGEIKELLEKMMYEVEISRGRAKLKYPAFRDDIMHARDILEDVLIAYGYNNIEPEEPKLAVQGRGDPFKDFEDAIRDLMVGFGLQEVMTFNLTNKEVQFKKMNIPEEEIVEIANPISQRWSALRKWILPSLMEFLSNNTHEEYPQRIFEVGLATLIDESRETKTVSEPKLAVALAGTGYTFTNAKEILDALMRHLGFEYEIEEVEHGSFIPGRAGKIIVNGRDIGIIGEVHPQVLENWNIEVPVVAFEIFLRPLYRH”, which “soluble on expression in E. coli” value is on record?
**A.** soluble

**Q.** For “MEEAVSPLGLDVLEVHFARGELLVRLERKDERPITVADLEEASRHIEAALDREDPIPGSYRLLVESPGPKRPLFTRRHFERFQGLKAKVPGPEGFTGRILRVEGEEVVFQVGDEERRLRIGTFRANLAEWPEEPR”, which “soluble on expression in E. coli” value is on record?
**A.** soluble

**Q.** Which “soluble on expression in E. coli” value does the source give for “MKSIVGVYETPQETIAAIEGLLTKGYDSDDISVVTSRRDTDYLESRTGTEVNQAIDAHQDESESFFDKLKDYFTMDDTATHSKALSDLDIKTDEIDKYQEDLDDGKLLVAVDTDADVIAPIDNGNALSGGFSSTNELDYTTKEEKTMPLREEQLKVDKEDVQTGEVEIGKEVKTEKRDMDIPVRHDEIYVERRPVDENKTDAAPVNDSEEIRVPIVEEKLEVTKKPVVTDEVVVGKRTVEENEHISETVKKEEPRLNKEGKVDGLDDDPLNNQMKIIDRQPKNLKSLEHHHHHH” here?
**A.** soluble

**Q.** With “MSLQIAGKVVVVTGGGNGIGQALCEAFHKAGAAKVVVADLDQARAEAVAASIGGAAFKCDVANEADIKHVIEETERQFGPIDLFCSNAGIGGGFDPMAENAGGASDEPFMKSWMIHVMAHVYAARHLVPRYRARGGGYFLNTISAAGLLSQVGSPAYSATKHGAVGFAESLAIAHKAHNIRVSILCPQGVDTNMLRSIPKGPQSADGDLTAEQVAKDALQGIEQETFLILPHPQVIDYMRKKTEGHHHHHH” as the sequence, how does the “soluble on expression in E. coli” value read?
**A.** soluble

**Q.** Which “soluble on expression in E. coli” value does the source give for “RKNSQSETFKVGVLQYVSHNALDEIYRGIKAGLKEEGYSGKKIKIDFMNAEGDQSKVQTMSQTLVNHKNDVLVGIATPAAQGLASATKKTPIIMGAVTDPVGAKLVKDLKKPNGNVTGVSDKTPISDQVSLIKKLTPDVKTVGILYSSSEDNSKSQVEEFKKIAEKKGYKVLEYSVPSTNEIATTMNVMLDKTDAVWIPLDNTIASAFPTVVSAAKTAKKPIYPSVDTMVTEGGLASVVVDQYKLGVATGKMAVKVFEGKKVSQLPVDIFDKGTPVVNKKVAKELGIDIPSDILKKAKQQKNQ” here?
**A.** not soluble

**Q.** For “MGSDKIHHHHHHMMFEDTHDEHVLLTPGPTPIHPRAQKALIRSMLGHMDPEVFALNSEIQRDLREMYGTEPEGFTALLAGTGSLGMEAGFANLVEAGDEVLVCANGSFGRRMAEMAARYGAKVRLVTAPLGEAIKPADVAAHLDDDISMVAVVHGETSTGVLNPVPEIAELVRGSGALLTVDAVTTAGMEPFHMQQWGVDYAYTGAQKCLSAPPGLAPVAISERAFSRFAARRTQTPLWYCDFEGLRDYWVNHTYHHTVPVNLHFAFHAALRAALEEGLEARQARVRLMGRVIERTLAPLGFSHYVRRPEDRLPTVLALRLPEGFDDAGLRQALRQREISVTGGLGPTAGVIWRLGLMGESARPGPYHRLMTELEDLLGAPGLLDRYEAVLAEEQRGELALA”, which “soluble on expression in E. coli” value is on record?
**A.** not soluble

**Q.** For “PCRECGRPMMIRTASTGVFLGCSGYSLPPKERCKATVNLIPGDEIAADDEGESESRVLRGKHRCPICSTAMDAYLLDEKHKLHICGNNPDCPGYEIEEGQYRIKGYEGPSLECDKCGSEMQLKTGRFGKFFGCTNPTCKNTRKLLK”, which “soluble on expression in E. coli” value is on record?
**A.** not soluble

**Q.** For “MHHHHHHSSGRENLYFQGTGQDALVLGFDWGKFLKDHSYKAAPVSCFKHVPLYDQWEDVMKGMKVEVLNSDAVLPSRVYWIASVIQTAGYRVLLRYEGFENDASHDFWCNLGTVDVHPIGWCAINSKILVPPRTIHAKFTDWKGYLMKRLVGSRTLPVDFHIKMVESMKYPFRQGMRLEVVDKSQVSRTRMAVVDTVIGGRLRLLYEDGDSDDDFWCHMWSPLIHPVGWSRRVGHGIKMSERRSDMAHHPTFRKIYCDAVPYLFKKVRAVYTEGGWFEEGMKLEAIDPLNLGNICVATVCKVLLDGYLMICVDGGPSTDGLDWFCYHASSHAIFPATFCQKNDIELTPPKGYEAQTFNWENYLEKTKSKAAPSRLFNMDCPNHGFKVGMKLEAVDLMEPRLICVATVKRVVHRLLSIHFDGWDSEYDQWVDCESPDIYPVGWCELTGYQLQPPVAAEPATPLKAKEATKKKKKQ”, which “soluble on expression in E. coli” value is on record?
**A.** soluble

**Q.** For “MSLKAIFWDMDGTMVDSEPQWGIATYELSEAMGRRLTPELRELTVGSSLPRTMRLCAEHAGITLSDADYERYRAGMFARVHELFDESLVPNPGVTELLTELKALEIPMLVTTNTERDLATRSVAAVGNEFFIGSIAGDEVPTAKPAPDMYLEAARRVGFDPSECLVFEDSYNGMLGAVTAGCRVIGLHPEEVQAPEGVVPLRSLHGKNSFEGVTAEMVTAWYHQIEPAGVAKEGHHHHHH”, which “soluble on expression in E. coli” value is on record?
**A.** soluble

**Q.** With “MSLIWKRKITLEALNAMGEGNMVGFLDIRFEHIGDDTLEATMPVDSRTKQPFGLLHGGASVVLAESIGSVAGYLCTEGEQKVVGLEINANHVRSAREGRVRGVCKPLHLGSRHQVWQIEIFDEKGRLCCSSRLTTAILEGGSHHHHHH” as the sequence, how does the “soluble on expression in E. coli” value read?
**A.** soluble

**Q.** Which “soluble on expression in E. coli” value does the source give for “MSLNLDYTTYRIICSHPFGISRSTHTYYDIVYIYISDGEYIGRGEAAPSVRYDESTNQIITHLKSIDNIDNNLNLEEGAFWCKKNSNGISSLEAALSTAWLDLWTKKNNRRISTYFNSGKNMLYTSFTIAIGDLDLIPKKIEEAKSYNILKIKLGINEQHDKNIIKLIRKETDKIIRVDANEGWDLDTGKKMCKWLADHNVEFVEQPFKAQNLGDTAKLRDVSPLPLIADENSIKSSNIPDIAHAFDGINIKLMKCGSLFEAKKMIDLARKYDMKIMLGCMVESSIGITAMSNLSPQVDFADLDGNLLIDNDPYIGVKVVDGKLKLPSGDGLGLTLNQKYRKDFGNLKEGHHHHHH” here?
**A.** soluble

**Q.** With “VCLEFQDCGVGLNAAQFKQLLISAVKDLFGEVDAALPLDILTYEEKTLSAILRICSSGLVKLWSSLTLLGSYKGKKCAFRVIQVSPFLLALSGNSRELVLD” as the sequence, how does the “soluble on expression in E. coli” value read?
**A.** not soluble

**Q.** For “NEFELGTRGSSRVDLQEQRSVKTRVSLDDLFEQIKQGEMKELNLIVKADVQGSVEALVAALQKIDVEGVRVKIIHAAVGAITESDISLATASNAIVIGFNVRPDANAKRAAESEKVDIRLHRIIYNVIEEIEAAM”, which “soluble on expression in E. coli” value is on record?
**A.** soluble

**Q.** With “MAHHHHHHMSGSVNRSNSFQKADSMDAKETSTVDRKWVALTAYQPVDVVTKTVEVPVIKTVEKFVPKTIIQEKIIHVPKNVTHIVEKIVEVPEVKYIEKIVEVPHIHYKNKYVPKIEVVEKVVERQKIIEKWHDKIVEVPQIKEVVRFKEIEDAEEVIKYIPRNSKNINWEEEYQKYTQRKGQERYSLDNNAYQQKMSSYNDYNEKAYSQNAYSRSLDFMNKQSSSLNNQSNIRSEDFSQINFFNQYIGSAGASYDKQRNSVPTSSFDARGSLQLKRMPSEEAKPVGCCTSACT” as the sequence, how does the “soluble on expression in E. coli” value read?
**A.** not soluble

**Q.** Which “soluble on expression in E. coli” value does the source give for “MRAGIYRRSAGQGAEEKPEAVRAGHRGGGERHHDHAHHDGEGEFVVREELLHGRSVRFRRRSERIDEHEHRQRDRGHAQPGADRGAPGRQRATTGDNVCDGTPGSPHRRVRRRRPAPAA” here?
**A.** not soluble

**Q.** Which “soluble on expression in E. coli” value does the source give for “MTVTSMLDNVLRIATRQSPLALWQAHYVKDALMATHPGLTVELVPMVTRGDVILDTPLAKVGGKGLFVKELEIALLEKRADIAVHSMKDVPVAFPDGLGLVTICEREDPRDAFVSNKYHSLDDLPAGSIVGTSSLRRQCQLAERRPDLIIRSLRGNVGTRLGKLDNGDYDAIILAVAGLKRLGLESRIRTALPPDVSLPAVGQGAVGIECRLDDARTQALLAPLNHSQTALRVTAERAMNTRLEGGCQVPIGSYAEIINGEIWLRALVGAPDGSVMVRGERRGSPEQAEQMGISLAEELLENGARAILTEVYNGETPA” here?
**A.** not soluble

**Q.** Which “soluble on expression in E. coli” value does the source give for “MGSDKIHHHHHHMKEPTIVKKEAFQAIGISITTTNEKEASTEGKIPGLWNRYFHEQIMHHIPNQQTKETFAFYSNYESDETGTYQFTIGMPVSSLEDVPENMTTLTIPAATYAVFTTRKGPVAEVVCEAWEYIWKWSKGNKRAFTIDFELYDEKATDPNNAQLDIYIALA” here?
**A.** not soluble

**Q.** Which “soluble on expression in E. coli” value does the source give for “GNQRKVSVVGAQSTMDVKDIKMPAASLSSAISGRIAGVVAVQRSGEPGHDESDIWIRGLSSLLGQSSSPLVLVDGVERSFNNIDPEDIESFTVLKDASATAVYGVRGANGVVIVKTKPGKVG” here?
**A.** soluble

**Q.** With “MSLSTLQDLEKTLWATADKMRANMDPAEYKHIVLGLIFLKYISDSFAGRRAELERKFSDAGDDYYLGGDDPTYLASELEERDYYKEVNVFWVPEPARWESLRAAAKQVDIGKRIDDALADIEAENPQLKNILDKRYARAQLPDGKLGELVDMISIIGFSSDANKARDLLGQVYEYFLGQFASAEGKRGGQFYTPASIVKTLVAVLNPHHGKVYDPCCGSGGMFVQSEKFIEAHGGKLGDVSIYGQESNPTTWRLAAMNLAIRGMDFNLGKEPADSFIRNQHSDLRADFVLANPPFNISDWWHGSLDGDSRWVYGTPPQGNANYAWLQHMLFHLKSSGRAGIVLANGSMSSSQNSEGDIRRAMVEADVVEVMVALPGQLFFNTQIPACLWFLAKQKNKRPGEVLFIDARKLGTNISRVQIELLDSDIESIAQTVANWRGVPLEVDGEIAEYADVAGFCRSVPLAEIAEHGHVLTPGRYVGAEAVEDDDEAFADKMQDLTALLGEQLAKGTELDQLIRHKLGGLGYEEGHHHHHH” as the sequence, how does the “soluble on expression in E. coli” value read?
**A.** soluble

**Q.** With “MGSDKIHHHHHHMYLEAFTSHFNSIADSRQSAKVTYPLHDVLFVTLCGVIAGAEGWSEIHDYAAGHHTWFKEKGILTEGVPVDDTIARIISRIEPEQFRLCFANWMRAVHEMSDGHLIAIDGKTLRASYNREDRRSTIHMVNAFACANKVVLGQVKTANKSNEITAIPALLQLLDIEGALVSIDAMGCQTEIARQIVEQGGDYLLAVKVNQSSLHEAVVSAFSEARSNPLDGLVIEKNRGRIEARAYYVIPANQLQDNFPKWMKLNTLGMCLSYRHTKGKEAELTYRYYISSATLDEQLLANSVRGHWGIENSLHWVLDVSMKEDSCQIYQHHGAENWAMLRHISLNMLRAEPSKGSIPAKQKRAWMKPEYLESVLLAGLQLDEF” as the sequence, how does the “soluble on expression in E. coli” value read?
**A.** not soluble

**Q.** For “MAHSEEQAAVPCAFIRQNSGNSISLDFEPDTEYQFVEQLEERYKCAFCHSVLHNPHQTGCGHRFCQQCIRSLRELNSVPICPVDKEVIKPQEVFKDNCCKREVLNLHVYCKNAPGCNARIILGRFQDHLQHCSFQAVPCPNESCREAMLRKDVKEHLSAYCRFREEKCLYCKRDIVVTNLQDHEENSCPAYPVSCPNRCVQTIPRARVNEHLTVCPEAEQDCPFKHYGCTVKGKRGNLLEHERAALQDHMLLVLEKNYQLEQRISDLYQSLEQKESKIQQLAETVKKFEKELKQFTQMFGRNGTFLSNVQALTSHTDKSAWLEAQVRQLLQIVNQQPSRLDLRSLVDAVDSVKQRITQLEASDQRLVLLEGETSKHDAHINIHKAQLNKNEERFKQLEGACYSGKLIWKVTDYRVKKREAVEGHTVSVFSQPFYTSRCGYRLCARAYLNGDGSGKGTHLSLYFVVMRGEFDSLLQWPFRQRVTLMLLDQSGKKNHIVETFKADPNSSSFKRPDGEMNIASGCPRFVSHSTLENSKNTYIKDDTLFLKVAVDLTDLEDL”, which “soluble on expression in E. coli” value is on record?
**A.** soluble

**Q.** Which “soluble on expression in E. coli” value does the source give for “MLPINRQQHILKWLKEEGSLRISDISARFGVSEMTVYRDVNQLVQSNQVIKTAGGITLPVRTPQTDHMCSYCLKPVNQAHSVQLITVNQDIEQLCCAHCAFLRYADKTEEVSHLICRDFLLQTTVSAGSAYFVVNAELNLHCCQPQAIPFATLDHAERFQKGFGGAVCTFDQALEDMLQDRKKRCTCTKK” here?
**A.** soluble

— the DeepSol protein solubility set
